# B1: Bc1.229 (antibody, V domains shown)
# VH: QVQLVESGGGVVQPGRSLRVSCAASGFTFSNYGMHWVRQAPGKGLEWLAVIWNDGSNKYYADSVKGRFIISRDNSKNTLYLQMNSLGAEDTAMYYCAREGLTSVTMLDSWGQGALVTVSS
# VL: DIQMTQSPSSLSASVGDRVTITCRASQYISSFLNWYQQKPGKAPKLLIHVASSLQSGVPSRFSGSGSGTHFTLTISSLQPEDFATYYCQQSYSTPLFTFGPGTKVDIKR
# B2: Bv4.115 (antibody)
# heavy: not shown
# light: DIQMTQSPSTLSASVGDRVTITCRASQSINTWLAWYQQKPGKAPKLLISKASSLESGVPSRFSGSGSGTEFTLSISSLQPDDFATYYCQQYNTFSFGQGTKLEIKRTVAAPSVFIFPPSDEQLKSGTASVVCLLNNFYPREAKVQWKVDNALQSGNSQESVTEQDSKDSTYSLSSTLTLSKADYEKHKVYACEVTHQGLSSPVTKSFNRGEC
# B3: Bv4.105 (antibody, V domains shown)
# VH: QVQLVESGGGLVQSGRSLRLSCSAFGFTFGDYPIMWVRLAPGKGLEWVGFIRSKAYGGTAEYAASVKGRFTTSRDDSRSTAYLQMNSLKTEDTAVYYCTREGGHSGFWSGFNKIPTFDYWGQGSLVTVSS
# VL: DIQMTQSPSSLSASIGDRVSITCRASETIRTYLNWYQHKPGKAPQLLIYAASSVQSGVPSRFSGSGSGTDFTLTISNLQPEDFATYYCQQSYTSPWVTFGPGTKVDIKR
# B4: Bc1.263 (antibody, human IgG1, kappa, V domains shown)
# VH: QVQLVQSGAEVKKPGSSVKVSCRASGGTFSNYGVNWVRQAPGQGLEWMGKIIPILGIVNYAQKFQGRVTITADKSTSTAYMELSSLRSEDTAVYYCARDRGGKPLYSYGYGLDYWGQGTLVTVSS
# VL: EIVLTQSPATLSLSPGERATLSCRASLSVSTYLAWYQKKPGQPPRLLIYDASKRATGIPARFSGSGSGTDFTLTISSLEPEDFAVYYCQQRSTTFGQGTKVEIKR
# B5: Bc1.187 (antibody, human IgG1, kappa)
# heavy: not shown
# light: DIQMTQSPSSLSAYVGDRVTITCRASQRISTYLNWYHQRPGKSPSLLIYGASSLQSGVPSRFSASASGTDFTLTISSLRPEDLGTYYCQQTYTLPPNSGGGTKVEIKRTVAAPSVFIFPPSDEQLKSGTASVVCLLNNFYPREAKVQWKVDNALQSGNSQESVTEQDSKDSTYSLSSTLTLSKADYEKHKVYACEVTHQGLSSPVTKSFNRGEC
# notes: also called Bcl.187; Bc1.187_huIgG1_wt
# B6: Bc1.128 (antibody)
# heavy: not shown
# light: DIQLTQSPSSLSASVGDRVTITCRASQGIRSDLGWYQQKPGKAPKRLIYGASNLQRGVPSRFSGSGSGTEFTLTISSLQPEDFASYYCLQHNSFPWTFGQGTKVEIKRTVAAPSVFIFPPSDEQLKSGTASVVCLLNNFYPREAKVQWKVDNALQSGNSQESVTEQDSKDSTYSLSSTLTLSKADYEKHKVYACEVTHQGLSSPVTKSFNRGEC
# B7: Bc8.111 (antibody)
# heavy: not shown
# light: QSVLTQPHSVSESPGKTVTISCTRSSGSIASNYVQWYQQRPGSAPTTVIYEDNERPSGVPARFSGSIDSSSNSASLTISGLKTEDEADYYCQSYESSNWVFGGGTKLTVLGQPKAAPSVTLFPPSSEELQANKATLVCLISDFYPGAVTVAWKADSSPVKAGVETTTPSKQSNNKYAASSYLSLTPEQWKSHRSYSCQVTHEGSTVEKTVAPTECS
# Columns and labels:
# [1] = biological target: T1, consensus S-HBs protein of HBV genotype I (ConsHBAg_I) (hepatitis B virus genotype I (consensus), UniProt P31873 175-400); experiment: flow cytometry, S-HBs-transfected 293-F cells
# T1 construct: also called genotype I S-HBs
# T1 chain: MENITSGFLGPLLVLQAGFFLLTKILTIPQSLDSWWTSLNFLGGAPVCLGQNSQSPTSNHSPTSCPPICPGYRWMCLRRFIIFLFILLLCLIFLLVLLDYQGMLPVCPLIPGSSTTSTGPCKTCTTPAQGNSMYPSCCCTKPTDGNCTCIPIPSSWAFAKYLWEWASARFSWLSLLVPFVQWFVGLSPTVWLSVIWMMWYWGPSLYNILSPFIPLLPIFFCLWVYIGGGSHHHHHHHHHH
# [2] = biological target: genotype D S-HBs mutant protein N146S (hepatitis B virus genotype D, UniProt P03138 164-389); experiment: flow cytometry, S-HBs-transfected 293-F cells
# [3] = biological target: T2, consensus S-HBs protein of HBV genotype C (ConsHBAg_C) (hepatitis B virus genotype C (consensus), UniProt P03140 175-400); experiment: flow cytometry, S-HBs-transfected 293-F cells
# T2 construct: also called genotype C S-HBs
# [4] = biological target: T3, consensus S-HBs protein of HBV genotype G (ConsHBAg_G) (hepatitis B virus genotype G (consensus), UniProt Q9IBI3 174-399); experiment: flow cytometry, S-HBs-transfected 293-F cells
# T3 construct: also called genotype G S-HBs
# [5] = biological target: genotype D S-HBs mutant protein M133T (hepatitis B virus genotype D, UniProt P03138 164-389); experiment: flow cytometry, S-HBs-transfected 293-F cells
# [6] = biological target: T4, consensus S-HBs protein of HBV genotype A (ConsHBAg_A) (hepatitis B virus genotype A (consensus), UniProt P03141 175-400); experiment: flow cytometry, S-HBs-transfected 293-F cells
# T4 construct: also called genotype A S-HBs
# [7] = biological target: genotype D S-HBs mutant protein Y134V (hepatitis B virus genotype D, UniProt P03138 164-389); experiment: flow cytometry, S-HBs-transfected 293-F cells
# [8] = biological target: genotype D S-HBs mutant protein T126A (hepatitis B virus genotype D, UniProt P03138 164-389); experiment: flow cytometry, S-HBs-transfected 293-F cells
# [9] = biological target: T5, consensus S-HBs protein of HBV genotype H (ConsHBAg_H) (hepatitis B virus genotype H (consensus), UniProt Q8JMZ6 175-400); experiment: flow cytometry, S-HBs-transfected 293-F cells
# T5 construct: also called genotype H S-HBs
# [10] = biological target: T6, consensus S-HBs protein of HBV genotype B (ConsHBAg_B) (hepatitis B virus genotype B (consensus), UniProt Q9PWW3 175-400); experiment: flow cytometry, S-HBs-transfected 293-F cells
# T6 construct: also called genotype B S-HBs
# [11] = biological target: T7, consensus S-HBs protein of HBV genotype F (ConsHBAg_F) (hepatitis B virus genotype F (consensus), UniProt Q05496 175-400); experiment: flow cytometry, S-HBs-transfected 293-F cells
# T7 construct: also called genotype F S-HBs
# [12] = biological target: T8, consensus S-HBs protein of HBV genotype D (ConsHBAg_D) (hepatitis B virus genotype D (consensus), UniProt P03138 164-389); experiment: flow cytometry, S-HBs-transfected 293-F cells
# T8 construct: also called genotype D S-HBs; ConsD S-HBs
# [13] = biological target: T9, consensus S-HBs protein of HBV genotype E (ConsHBAg_E) (hepatitis B virus genotype E (consensus), UniProt Q69603 174-399); experiment: flow cytometry, S-HBs-transfected 293-F cells
# T9 construct: also called genotype E S-HBs
# T9 chain: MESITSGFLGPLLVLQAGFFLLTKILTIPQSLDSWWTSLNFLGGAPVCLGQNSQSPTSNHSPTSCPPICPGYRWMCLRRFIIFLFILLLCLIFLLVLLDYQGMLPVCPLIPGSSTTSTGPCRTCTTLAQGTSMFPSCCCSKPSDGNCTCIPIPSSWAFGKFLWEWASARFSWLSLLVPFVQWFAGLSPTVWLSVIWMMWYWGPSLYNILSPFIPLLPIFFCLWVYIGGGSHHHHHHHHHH
# [14] = biological target: T10, Adw S-HBs protein (adw HBsAg particles, GenHevac (Adw)) (hepatitis B virus, adw subtype); experiment: ELISA on recombinant HBV vaccine particles
# T10 construct: also called GenHevac-B
# [15] = biological target: T11, Ayw S-HBs protein (ayw HBsAg particles, Engerix-B (Ayw)) (hepatitis B virus, ayw subtype); experiment: ELISA on recombinant HBV vaccine particles
# [16] = biological target: HBV genotype D viruses (produced in HepG2.2.15 cell culture supernatant) (hepatitis B virus genotype D); experiment: cell-based or functional assay
# [17] = biological target: T10, Adw S-HBs protein (adw HBsAg particles, …); experiment: ELISA, AUC of binding curve; set-up: unit not given beside the values
# [18] = biological target: T11, Ayw S-HBs protein (ayw HBsAg particles, …); experiment: ELISA, AUC of binding curve; set-up: unit not given beside the values
# [19] = biological target: genotype D S-HBs mutant protein G145R (hepatitis B virus genotype D, UniProt P03138 164-389); experiment: flow cytometry, S-HBs-transfected 293-F cells
# T5 sequence (Q8JMZ6 175-400, tags left off): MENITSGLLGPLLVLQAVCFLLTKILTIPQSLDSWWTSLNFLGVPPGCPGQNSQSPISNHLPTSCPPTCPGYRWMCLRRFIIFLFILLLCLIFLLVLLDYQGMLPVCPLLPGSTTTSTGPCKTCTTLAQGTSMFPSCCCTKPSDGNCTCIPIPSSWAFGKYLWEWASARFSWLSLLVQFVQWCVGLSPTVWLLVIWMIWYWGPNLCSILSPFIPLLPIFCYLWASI
# T7 sequence (Q05496 175-400, tags left off): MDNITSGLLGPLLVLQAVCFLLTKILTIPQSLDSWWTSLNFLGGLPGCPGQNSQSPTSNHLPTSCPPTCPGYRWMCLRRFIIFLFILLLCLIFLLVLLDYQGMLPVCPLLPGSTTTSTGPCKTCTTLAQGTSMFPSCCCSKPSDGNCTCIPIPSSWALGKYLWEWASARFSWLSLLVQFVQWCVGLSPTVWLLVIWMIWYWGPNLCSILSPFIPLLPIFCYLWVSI
Binder,% of bound S-HBs-expressing cells [1] [%],% of bound S-HBs-expressing cells [2] [%],% of bound S-HBs-expressing cells [3] [%],% of bound S-HBs-expressing cells [4] [%],% of bound S-HBs-expressing cells [5] [%],% of bound S-HBs-expressing cells [6] [%],% of bound S-HBs-expressing cells [7] [%],% of bound S-HBs-expressing cells [8] [%],% of bound S-HBs-expressing cells [9] [%],% of bound S-HBs-expressing cells [10] [%],% of bound S-HBs-expressing cells [11] [%],% of bound S-HBs-expressing cells [12] [%],% of bound S-HBs-expressing cells [13] [%],EC50 [14] [ng/mL],EC50 [15] [ng/mL],HBV-gD in vitro neutralization (IC50 µg/ml) [16] [µg/mL],AUC (serotype binding) [17],AUC (serotype binding) [18],% of bound S-HBs-expressing cells [19] [%]
B1,64,56,76,79,62,75,67,70,74,68,68,73,71,26.1,12.3,2.53e-05,35,34,–
B2,71,67,82,83,67,88,66,71,77,83,73,89,85,27.7,5.1,3.87e-06,36,37,60
B3,–,–,1,–,–,21,–,–,55,–,46,–,–,8920,4.8,2.95e-06,8,33,–
B4,–,–,–,–,–,–,–,–,–,–,–,–,–,–,–,3.96e-06,–,–,–
B5,54,48,67,64,52,73,57,60,59,70,58,66,66,4.9,3.5,5e-08,36,35,17
B6,47,46,67,58,48,64,47,53,59,67,58,64,65,7.2,5.7,0.000544,35,37,0
B7,52,55,72,60,54,65,56,55,67,64,66,71,68,8.9,9.5,2.51e-06,35,36,0
